The target in assay [1] is T1, human cIAP1 BIR3 domain with C-terminal 6xHis-tag (human, UniProt Q13490 251-363, limits assumed).
T1 construct: domain: BIR3
The assay is described as follows: fluorescence polarization, saturation binding; 2 nM probe, protein 0 to 20 µM. The procedure:
(§1) After shaking (15 min) the plate was incubated for 3 hours at room temperature. […] All experiments were performed in black, flat-bottom 96-well microplates (Greiner bio-one).
On the technique in general: In fluorescence polarisation assays a small probe gives low polarisation when free and higher when bound to something large.

For assay [2], the target named is T2, human cIAP2 BIR3 domain with C-terminal 6xHis-tag (human, UniProt Q13489 237-349, limits assumed).
T2 construct: domain: BIR3
T2 sequence (Q13489 other isoform, or with tags, fused parts or gaps limits assumed): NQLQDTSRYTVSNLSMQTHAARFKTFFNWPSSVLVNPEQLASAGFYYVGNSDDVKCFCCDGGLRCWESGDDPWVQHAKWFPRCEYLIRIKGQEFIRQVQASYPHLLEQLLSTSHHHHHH
The description is as above. On the procedure: as §1

Where no end group is shown, it is not given here. [ ]: non-standard residue; d: D form. The star is where a group is joined. 5FAM = O=C1OC2(c3ccc(O)cc3Oc3cc(O)ccc32)c2ccc(C(=O)*)cc21; Abu = CC[C@H](N)C(=O)O

T1 sequence (Q13490 other isoform, or with tags, fused parts or gaps limits assumed): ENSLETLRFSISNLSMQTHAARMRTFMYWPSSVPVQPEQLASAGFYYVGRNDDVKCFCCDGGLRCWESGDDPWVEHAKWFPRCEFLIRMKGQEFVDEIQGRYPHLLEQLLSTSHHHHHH

B1: Fluorescent-labelled Smac peptide [AbuRPF-K(5-Fam)-NH2] (peptide)
peptide: [Abu]RPFK(5FAM)-NH2
modifications: N-terminus assumed
SMILES: CC[C@H](N)C(=O)N[C@@H](CCCNC(=N)N)C(=O)N1CCC[C@H]1C(=O)N[C@@H](Cc1ccccc1)C(=O)N[C@@H](CCCCNC(=O)c1ccc2c(c1)C(=O)OC21c2ccc(O)cc2Oc2cc(O)ccc21)C(N)=O
notes: Synthetic labelled probe used in the fluorescence polarization assays; also called FITC-SMAC; fluorescently-labelled Smac peptide
As for B1, the Kd in assay [1] was 4.8 nM; in assay [2], 23.6 nM.

By Kd is commonly meant the constant that tells how readily two partners part at equilibrium.

For the origin of these results see patent US20150119342A1 (published 2015).
